Results from the nanobody polyreactivity screen of Harvey et al. (2022).

Test: yeast display, Sf9 membrane polyspecificity reagent, FACS + sequencing; frameworks hold sequencing errors
In short: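 In a synthetic yeast display library (Saccharomyces cerevisiae BJ5465), nanobody expression was induced with galactose for 36–48 hours. FACS gates were set low and high (top ~1%) using anti-HA fluorescence for expression and streptavidin fluorescence for binding of the Sf9 membrane reagent. Each polyreactivity label is drawn from the gate of origin.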

Sequence	polyreactivity (PSR sort gate)
QVQLVESGGGLVQAGGSLRLSCAASGRIFWYYAMVWYRQAPGKERELVATISSRSGSTYYADSVKGRFTISRDNAKNTVYLQMNSLKPEDTAVYYCAAGTPYYLGYRHNYWGQGTQVTVSS	high polyreactivity
QVQLKESGGGQVQAGGSLRLCCAASGKIIPDAGMGWYRQAPGKEREFVAGISRGANTYYADSVKGRFTISRDNAKNTLYLHMYSLKPEDTAVFYCAVNVPWTYQYGYWGQGTQVTVSS	high polyreactivity
QVQLVESGGGLVQAGGSPRLSCAASGIIFQHNAMGWYRQAPGKERELVAAISSNGGRTFYADSVKGRFTISRDNAKNTVYLQMNSLKPEDTAVYYCAADRPAYGVGYWGQGTQVTVSS	high polyreactivity
QVQLVESGGGLVQAGGSLRLSCAASGRTFDVYAMGWYRQAPGKERELVAAISKRGGSTYYADSVKGRFTISRDNAKNTVYLQMNSLKPEDTAVYYCNAYQTGWKGYDYWGQGTQVTVSS	high polyreactivity
QVQLQESGGGLVQAGGSLCLSCAASSYFSTYYSMGSYRKAPSKGRELVAAIDSGSSTNYADSVEGRFTISRDNAKNTVYLQMNSLKPGDTAVYYCAARDDARRGFYYWGQGTQVTVSS	high polyreactivity
QVQLVESGGGLVQAGGSLRLSCAASGRILWGNVMGWYRKAPGKERELVATITHGGSTNYADSVKGRFTISRDNAKNTVYLQMNSLKPEDTAVYYCARATRIQFYRRPYNYWGQGTQVTVSS	high polyreactivity
QVQLVESGGGLVQAGGSLRLSCAASGFIFSKYAMGWYRQAPGKERELVAAISWNGGSTYYADSVKGRFTISRDNAKNTVYLQMNSLKPEDTAVYYCNTGYGRIRRPGALDYWGQGTQVTVSS	high polyreactivity
QVQLVESGGGLVQAGGSLRLSCAASGRTFSGNAMGWYRQAPGKEREMVAAITGRGGTTYYADSVKGRFTISRDNAKKTVFLQMNSLKPEDTAVYYCAADTKLSYQWFDYWGQGTQVTVSS	high polyreactivity
QVQLVESGGGLVQAGGILRLSCAASGSIFSSYGMGRYRQAPGKERELVAAITRGGGSTYYADSVKGRFTISRDNAKNTVYLQMNSLKPEDTAVYYCAARGWRYSYTSVLFDYWGQGTQVTVSS	high polyreactivity
QVQLVESGGGLVQAGGSLRLSCAASGRIIDNNAMGWYRPAPGKERQLVAAISWSGTSTYYADSVKGRFTISRDHAKNTVYLQMNSLKPEDTAVYYCNADSWFYTRFDYWGQGTQVTVSS	high polyreactivity
QVQLVESGGGLVQAGGSLRLSCAASGSIFGIYTMGWYRQAPGKERELVAAIRRSGSTNYADSVKGRFTISRDNAKNTVYLQMNSLKPEDTAVYYCAADALSDEYDYWGQGTQVTVSS	low polyreactivity
QVQLVESGGGLVQAGASLRLSCAASGRTFGYYAMGWYRQAPGKERELVATISRRGGRTYYADSVKGRFTISRDNAKNTVYLQMNSLKPEDTAVYYCNKYLASYSYSDLVYWGQGTQVTVSS	high polyreactivity
QVQLVESGGGLVQAGGSLRLSCAASGLIFPRNAMGWYRQAPGKERELVAVISRSGTSTYYADSVKGRFTISRDNAKNTVYLQMNSLKPEDTAVYYCAAAPSQVYRARFYYWGQGTQVTVSS	high polyreactivity
QVQLVESGGGLVQAGGSLRLSCAASGRTFHHNAMGWYRQAPGKERELVATITAGSGSTYYADSVKGRFTISRDNAKNTVYLQMNSQKPEDTAVYYCAARVGWNKRRYDYWGQCTQVTVSS	low polyreactivity
QVQLVESGGGLVQAGGSLRLSCAASGRLFYRNAMGWYRQAPGKERELVAAISSSAGSTYYADSVKGRFTISRDNAKNTVYLQMNSLKPEDTAVYYCAASLYSWGQGTQVTVSS	high polyreactivity
QVQLVETAGGLVQAGGSLRLSCAASGRIFYGYTLGWYRPAPGKERELVAAISRGGSTYYADSVKGRFTISRDNAKNTVYLQMNSLKPEDPAVYYCAKTYRRRYYPYFHFRYYWGQGTQVTVSS	high polyreactivity

Sequence	polyreactivity (PSR sort gate)
QVQLVESGGGVVQAGGSLRLSSAASGYIFRAYAMGWYRQAPGKERELVAAISSRGGSTYFADSVKGRFTISRDNAKNTVYLQMNSLKPEDTAVYYCAAAYRQPYIGYGYWGQGTQVTVSS	high polyreactivity
QVQLVESGGGLVQAGGSLRLSCAASGRIFDKYAMGWYRQAPGKERYLVAAIDWSGGSTYYADSVKGRFTISRDNAKNTVYLQMNRLKPEDNAVYYCAAYWYYEDGQSEARLYGYDYWGQGTQVTVSS	low polyreactivity
QVQLVESGGGLVQAGGSLRLSCAASGRIFYPNAMGWYRQAPGQERELVAAISLSAGSTYYADSVKGRFTISRDNAKNTVSLQMNSLKPEDTAVYYCATQGNSPRGTRRYGYWGQGTQVTVSS	high polyreactivity
QVQLVESGGGLVQAGGSLRLSCAASGSTFYKYVMGWYRQAPGKERELVAAISWSGGSTYYADSVKGRFTISRDNAKNTVYLQMNSLKPEDPAVYYCAAETYAYLFHTYDYWGQGTQVTVSS	low polyreactivity
QVQLVESGGGLVQAGGSLRLSCAASGSTFRYNAMGWYRQAPGKERELVAAISSGSSTNYADSVKGRFSISRDNAKNTVYLQMNSLKPEDTAVYYCAAQPGYYDDFYYWGQGTQVTVSS	low polyreactivity
QVQLVESGGGLVQAGGSLRLSCAASGSTFSRNAMGWYRQAPGKERELVATISRSGRTNYADSVKGRFTISRDNAKNTVYLQMNSLKPEDTAVYYCNAGYRRSYEYWGQGTQVTVSS	low polyreactivity
QVQLVESGGGLVQAGGSLRLSCAASGRIFSYYAMGWSRQAPGNERELVAAITWSGGRTYYADSVKGRFTISRDNAKNTVYLQMNSLNPEDTAVYYCAADYYYGSLWDNKLGYWGQGTQVTVSS	high polyreactivity
QVQLVESGGGLVQAGGSLRLSCAASGFTFTWYAMGWYRQAPGKERELVASISRSGGSTYYADSVKGRFTISRDNAKNTVYLQMNSLKPEDTAVYYCAAVSRTRSYDYWGQGTQVTVSS	high polyreactivity
QVQLVESGGGLVQEGGSLRLSCAASGFIFRYYAMGWYRQAPGKERELVAAISSSGGSTYYADSVKGRFTISRDNAKNTVYLQMNSLKPEDTAVSYCNAYNYGYIGYGYNYWGQGTQVTVSS	high polyreactivity
QVQLVESGGGLVQAGGSLRLSCAASGSTFIANAMGWYSQAPGKERELVAGITRGGSTYYADSVKGRFTISRDNAKHTVYLQMNSLNPEDTAVYYCATDLRSYYYQWTYYHWGQATQVTVSS	low polyreactivity
QVQLVESGGGLVQAGGSLRLSCAASGFTFVPYAMGWYRQAPGKEREFVADITSSGTTNYADSVKGRFTISRDNAKNTVYLQMNSLKPEDTAVYYCAADPDSGQVPFDYWGQGTQVTVSS	low polyreactivity
QVQLVESGGGLVQAGGSLRLSCAASGFIFRYYTMGWYRQAPGKERELVAAISYSGGRTYYADSVKGRFTISRDNAKNTVYLQMNSVKPEDTAVYYCAARQGYVDDDYWGQGTQVTVSS	high polyreactivity
QVQLVESGGGLVQAGGSLRLSCAASGSTFPHYAMGWYRQAPGKERELVAAISWSGSSTYYADSVKGRFTISRDNAKNTVYLQMNSLKPEDTAVYYCNKLPRRAPQFTYDYWGQGTLVTVSS	high polyreactivity
QVQLVESGGGLVQAGGSLRLSSAASGFTFSGYDMGWYRQAPGKERELVAGISSGGVSTTYADSVNGRFTISRDNAKNTVYLQMNSLKQEDTAVYYCNAEWTSFDWGQGTQVTVSS	low polyreactivity
QVQLVESGGGLVQAGGSLRLSCAASGSIFVPYAMGWYRQAPGKERELVAGINWSSGRTYYADSVKGRFTISRDNAKNTVYLQMNSLKPEDTAVYYCAAEKYTTYSFYHVAYDYWGQGTQVTVSS	high polyreactivity
QVQLVESGGGVVQAGGSLRLTCAASGRTFYVYAMGWYRQAPGKEREFVAAITSSGGSTYYADSVKGRFTISRDNAKNTVYLQMNSLNPEDTAVYYSDAEWSTPSYVGFADGFEYWGQGTQVTVSS	low polyreactivity
